# Experimental data from patent publication US20040192609A1.
# How the values were obtained:
# [1] = target: gp120 of the HIV-1 isolate ADA (HIV-1); test: scFv precipitated with Protein L-Sepharose, radiolabeled ADA gp120 with and without soluble CD4, densitometry
# [2] = target: envelope glycoprotein of the R5-isolate ADA on pseudotyped HIV-1 (HIV-1); test: cell-based or functional assay
Substance,enhancement of binding to gp120 by soluble CD4 [1],EC50 of neutralization of ADA virus [2],further results
17b scFv,> 2 fold,,
47e scFv (wt),> 2 fold,,
412d scFv (wt),> 2 fold,,
CD4 binding site antibody F105,,0.2 to 0.5 µg/mL,
E51 scFv,,,increase of binding to gp120 in the presence of CD4 [1]: 40%
antibody 17b,,> 2 µg/mL,
antibody 412d,,0.2 to 0.5 µg/mL,
antibody E51,,< 0.05 µg/mL,
